Data from patent US20190077860A1 (EISAI R AND D MANAGEMENT, published 2019).
Substitutions are numbered along the chain they refer to. Names and notes keep the numbering of the source.

T1: human EphA3 extracellular region-SEAP-His protein (human, UniProt P29320 21-541)
T1 construct: extracellular domain; also called hEphA3-SEAP-His
T1 sequence (looked up): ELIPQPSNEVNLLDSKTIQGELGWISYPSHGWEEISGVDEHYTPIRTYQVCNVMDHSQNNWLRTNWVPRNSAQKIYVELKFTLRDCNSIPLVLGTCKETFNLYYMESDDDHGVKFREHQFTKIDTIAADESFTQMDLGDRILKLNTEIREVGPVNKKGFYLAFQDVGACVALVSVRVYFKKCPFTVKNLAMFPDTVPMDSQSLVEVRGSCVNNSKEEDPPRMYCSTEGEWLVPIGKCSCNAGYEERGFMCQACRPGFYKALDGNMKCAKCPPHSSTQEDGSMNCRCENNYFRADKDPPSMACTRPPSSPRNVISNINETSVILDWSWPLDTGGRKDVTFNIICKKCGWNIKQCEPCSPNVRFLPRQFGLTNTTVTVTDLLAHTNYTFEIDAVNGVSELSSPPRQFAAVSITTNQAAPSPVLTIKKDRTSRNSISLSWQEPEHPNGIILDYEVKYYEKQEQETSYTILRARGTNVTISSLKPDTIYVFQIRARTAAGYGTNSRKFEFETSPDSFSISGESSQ

T2: human EphA6 extracellular region-SEAP-His protein (human, UniProt Q9UF33 23-550)
T2 construct: extracellular domain; also called hEphA6-SEAP-His
T2 sequence (looked up): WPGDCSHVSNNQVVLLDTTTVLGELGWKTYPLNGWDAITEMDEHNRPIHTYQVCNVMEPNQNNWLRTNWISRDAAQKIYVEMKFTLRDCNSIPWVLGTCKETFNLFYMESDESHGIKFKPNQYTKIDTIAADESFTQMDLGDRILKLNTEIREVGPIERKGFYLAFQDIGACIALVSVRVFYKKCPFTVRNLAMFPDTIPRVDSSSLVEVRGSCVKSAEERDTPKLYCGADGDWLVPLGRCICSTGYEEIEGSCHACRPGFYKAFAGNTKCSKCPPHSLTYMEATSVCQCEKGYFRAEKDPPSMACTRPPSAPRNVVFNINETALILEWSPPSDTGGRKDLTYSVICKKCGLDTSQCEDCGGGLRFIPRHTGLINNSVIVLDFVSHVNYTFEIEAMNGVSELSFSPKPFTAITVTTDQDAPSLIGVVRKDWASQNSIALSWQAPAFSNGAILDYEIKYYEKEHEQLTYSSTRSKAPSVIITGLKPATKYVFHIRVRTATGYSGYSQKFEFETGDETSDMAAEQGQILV

T3: human EphA10 extracellular region-SEAP-His protein (human, UniProt Q5JZY3 34-565)
T3 construct: extracellular domain; also called hEphA10-SEAP-His
T3 sequence (looked up): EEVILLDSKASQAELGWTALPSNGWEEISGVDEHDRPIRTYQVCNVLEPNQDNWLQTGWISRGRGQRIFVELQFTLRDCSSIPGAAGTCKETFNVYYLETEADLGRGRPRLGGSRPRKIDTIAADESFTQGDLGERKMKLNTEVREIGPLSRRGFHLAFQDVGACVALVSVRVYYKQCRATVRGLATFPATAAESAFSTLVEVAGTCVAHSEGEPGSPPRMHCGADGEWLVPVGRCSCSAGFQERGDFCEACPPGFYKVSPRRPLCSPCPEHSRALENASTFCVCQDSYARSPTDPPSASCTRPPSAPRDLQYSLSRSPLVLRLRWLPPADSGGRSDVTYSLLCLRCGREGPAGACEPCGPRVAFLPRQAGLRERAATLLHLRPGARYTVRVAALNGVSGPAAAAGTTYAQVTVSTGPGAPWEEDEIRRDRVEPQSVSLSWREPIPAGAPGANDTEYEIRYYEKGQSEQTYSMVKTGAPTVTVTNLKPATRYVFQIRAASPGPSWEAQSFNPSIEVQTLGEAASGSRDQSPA

T4: human EphB2 extracellular region-SEAP-His protein (human, UniProt P29323 19-543)
T4 construct: extracellular domain; also called hEphB2-SEAP-His
T4 sequence (looked up): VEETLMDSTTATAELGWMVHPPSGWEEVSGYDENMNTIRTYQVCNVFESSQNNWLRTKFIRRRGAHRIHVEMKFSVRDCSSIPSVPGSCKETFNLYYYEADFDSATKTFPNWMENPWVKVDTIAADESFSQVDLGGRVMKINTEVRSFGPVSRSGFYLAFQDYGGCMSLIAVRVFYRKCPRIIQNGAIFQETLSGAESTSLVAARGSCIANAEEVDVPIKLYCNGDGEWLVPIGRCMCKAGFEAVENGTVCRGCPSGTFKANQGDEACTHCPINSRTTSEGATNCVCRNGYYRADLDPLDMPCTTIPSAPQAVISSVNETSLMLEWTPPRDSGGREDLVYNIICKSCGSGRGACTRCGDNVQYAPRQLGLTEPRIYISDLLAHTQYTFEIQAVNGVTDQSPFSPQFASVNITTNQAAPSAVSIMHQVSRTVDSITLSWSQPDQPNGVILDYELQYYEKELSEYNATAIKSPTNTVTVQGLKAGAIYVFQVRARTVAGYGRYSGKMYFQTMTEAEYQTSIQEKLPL

B1: humanized antibody No. 76 (antibody, human IgG1, kappa)
heavy: QVQLVQSGSELKKPGASVKVSCKASGYTFTDYSMHWVRQAPGQGLKWMGWINTETGEPTYAQGFTGRFVFSLDTSVSTAYLQISSLKAEDTAVYYCARIPLYYYGSRYWYFDVWGQGTTVTVSSASTKGPSVFPLAPSSKSTSGGTAALGCLVKDYFPEPVTVSWNSGALTSGVHTFPAVLQSSGLYSLSSVVTVPSSSLGTQTYICNVNHKPSNTKVDKRVEPKSCDKTHTCPPCPAPPAAAPSVFLFPPKPKDTLMISRTPEVTCVVVDVSHEDPEVQFNWYVDGVEVHNAKTKPREEQFNSTFRVVSVLTVVHQDWLNGKEYKCKVSNKGLPAPIEKTISKTKGQPREPQVYTLPPSREEMTKNQVSLTCLVKGFYPSDIAVEWESNGQPENNYKTTPPMLDSDGSFFLYSKLTVDKSRWQQGNVFSCSVMHEALHNHYTQKSLSLSPG
light: DIQMTQSPSSLSASVGDRVTITCRASENIYRNLAWYQQKPGKAPKLLVYAATNLADGVPSRFSGSGSGTDYTLTISSLQPEDFATYYCQHFWGTPWTFGQGTKVEIKRTVAAPSVFIFPPSDEQLKSGTASVVCLLNNFYPREAKVQWKVDNALQSGNSQESVTEQDSKDSTYSLSSTLTLSKADYEKHKVYACEVTHQGLSSPVTKSFNRGEC
notes: human Ig kappa; also called L1-4/HA2
B2: humanized antibody No. 87 (antibody, human IgG1, kappa)
heavy: B1 heavy with K46E
light: B1 light with K45Q, V48L
notes: human Ig kappa; also called L1-6/HA1
B3: humanized antibody No. 85 (antibody, human IgG1, kappa)
heavy: B1 heavy with Q62D, G63D, T65K
light: B1 light with V48L, P80S
notes: human Ig kappa; also called L1-5/HK2
B4: humanized antibody No. 82 (antibody, human IgG1, kappa)
heavy: B1 heavy
light: B1 light with V48L, P80S
notes: human Ig kappa; also called L1-5/HA2
B5: humanized antibody No. 67 (antibody, human IgG1, kappa)
heavy: B1 heavy with V2I
light: B1 light
notes: human Ig kappa; also called L1-4/HA4
B6: humanized antibody No. 92 (antibody, human IgG1, kappa)
heavy: B1 heavy with V2I, Q62D, G63D, T65K
light: B1 light with K45Q, V48L
notes: human Ig kappa; also called L1-6/HK4
B7: humanized antibody No. 78 (antibody, human IgG1, kappa)
heavy: B1 heavy with Q62D, G63D, T65K
light: B1 light
notes: human Ig kappa; also called L1-4/HK2
B8: humanized antibody No. 81 (antibody, human IgG1, kappa)
heavy: B1 heavy with K46E
light: B1 light with V48L, P80S
notes: human Ig kappa; also called L1-5/HA1
B9: humanized antibody No. 90 (antibody, human IgG1, kappa)
heavy: B1 heavy with K46E, Q62D, G63D, T65K
light: B1 light with K45Q, V48L
notes: human Ig kappa; also called L1-6/HK1
B10: humanized antibody No. 77 (antibody, human IgG1, kappa)
heavy: B1 heavy with K46E, Q62D, G63D, T65K
light: B1 light
notes: human Ig kappa; also called L1-4/HK1
B11: humanized antibody No. 69 (antibody, human IgG1, kappa)
heavy: B1 heavy with V2I, Q62D, G63D, T65K
light: B1 light
notes: human Ig kappa; also called L1-4/HK4
B12: humanized antibody No. 89 (antibody, human IgG1, kappa)
heavy: B1 heavy with V2I
light: B1 light with K45Q, V48L
notes: human Ig kappa; also called L1-6/HA4
B13: humanized antibody No. 84 (antibody, human IgG1, kappa)
heavy: B1 heavy with K46E, Q62D, G63D, T65K
light: B1 light with V48L, P80S
notes: human Ig kappa; also called L1-5/HK1
B14: humanized antibody No. 88 (antibody, human IgG1, kappa)
heavy: B1 heavy
light: B1 light with K45Q, V48L
notes: human Ig kappa; also called L1-6/HA2
B15: humanized antibody No. 91 (antibody, human IgG1, kappa)
heavy: B1 heavy with Q62D, G63D, T65K
light: B1 light with K45Q, V48L
notes: human Ig kappa; also called L1-6/HK2
B16: humanized antibody No. 83 (antibody, human IgG1, kappa)
heavy: B1 heavy with V2I
light: B1 light with V48L, P80S
notes: human Ig kappa; also called L1-5/HA4
B17: humanized antibody No. 86 (antibody, human IgG1, kappa)
heavy: B1 heavy with V2I, Q62D, G63D, T65K
light: B1 light with V48L, P80S
notes: human Ig kappa; also called L1-5/HK4
B18: humanized antibody No. 75 (antibody, human IgG1, kappa)
heavy: B1 heavy with K46E
light: B1 light
notes: constant region: human IgG1 CH1 and hinge, human IgG2 CH2 and CH3 with V234A, G237A, no C-terminal Lys; human Ig kappa; also called L1-4/HA1

target: T1, human EphA3 extracellular …; assay: ELISA

Binder	A450 as % of hEphA4-SEAP-His [%]
B1	4.9
B2	5.5
B3	5.1
B4	5.4
B5	4.8
B6	6.5
B7	5.1
B8	5
B9	5.2
B10	4.5
B11	5.4
B12	5.8
B13	4.9
B14	6
B15	6.6
B16	5.7
B17	5.8
B18	4.8

target: T2, human EphA6 extracellular …; assay: ELISA

Binder	A450 as % of hEphA4-SEAP-His [%]
B1	7.9
B2	6.4
B3	6.2
B4	8.7
B5	7.3
B6	9.6
B7	10
B8	8.8
B9	7.6
B10	6
B11	9.5
B12	8.4
B13	6
B14	7.5
B15	8.8
B16	7.5
B17	8.6
B18	8.3

target: T3, human EphA10 extracellular …; assay: ELISA

Binder	A450 as % of hEphA4-SEAP-His [%]
B1	4.7
B2	5.2
B3	5
B4	5.4
B5	4.6
B6	6.6
B7	5.2
B8	4.8
B9	5.1
B10	4.5
B11	5.4
B12	5.7
B13	5.1
B14	5.8
B15	8.5
B16	5.6
B17	5.6
B18	4.4

target: T4, human EphB2 extracellular …; assay: ELISA

Binder	A450 as % of hEphA4-SEAP-His [%]
B1	4.9
B2	5.4
B3	5.1
B4	5.6
B5	4.7
B6	6.6
B7	5.1
B8	5
B9	5.9
B10	4.5
B11	5.5
B12	5.7
B13	4.9
B14	6
B15	7
B16	5.6
B17	5.7
B18	4.5
